“Also recorded” adds a separate entry of the source.
Key:
syndecan-4 = assay: Syndecan-4 immunoprecipitation and immunoblotting for FNIII13; type: binding
Experimental: (§1) To investigate FNIII13 as a potential ligand of syndecan-4, the interaction of syndecan-4 with FNIII13 was tested. Upon addition of FNIII13 to T98G:S4* cells, FNIII13 was detected in a syndecan-4 immunoprecipitation followed by western blotting with a GST specific antibody. This interaction was blocked upon addition of heparin. Parental and syndecan-4 overexpressing T98G:S4* cells were incubated with (100 μg/ml) FNIII13 for 1 h in the presence or absence of 0.5 mg/ml heparin. Syndecan-4-bound FNIII13 was detected by immunoprecipitation of syndecan-4 and immunoblotting for FNIII13. Recombinant FNIII13 was added to the cells in the absence or presence of (0.5 mg/ml) heparin. […] To further test whether FNIII13 binds to syndecan-4, FNIII13 was added to T98G cells and cell surface-bound FNIII13 was detected by pull down of the GST-tagged FNIII13 with glutathione Sepharose followed by western blotting with an anti-His antibody or by immunofluorescence with an anti-GST antibody. […] This interaction could be blocked by heparin showing that syndecan-4 bound FNIII13 in a glycosaminoglycan-dependent manner. In addition, cell surface-bound FNIII13 was detected by immunofluorescence with an anti-His and anti-GST antibody. […] Syndecan-2 expression was determined by incubation with chicken anti-syndecan-2, followed by rabbit anti-chicken and FITC coupled goat anti-rabbit immunostaining.

[1] = tested on: T98G cells, MDA-MB435 cells and rat embryo fibroblasts REF52; assay: Attachment assay: cell spreading on fibronectin/tenascin-C with added fibronectin fragment; type: cell-based
Experimental: 60-well microtiter plates (Nunc) were coated with 10 μg/ml ECM molecules giving rise to 1 μg/cm^2 (fibronectin and tenascin-C) and 4 μg/cm^2 (FNIII13) for 1 h at 37° C. ECM proteins were coated separately, starting with fibronectin, followed by tenascin-C, FNIII13 and BSA. The non-coated plastic surface was blocked with 1% heat-inactivated BSA in PBS giving rise to 10 μg/cm^2 protein. Similarly, mixed substrata of collagen I and laminin 1, respectively with tenascin-C were prepared and tenascin-C was detected by ELISA.
Efficient fibronectin and tenascin-C coating was determined by ELISA with an anti-fibronectin and anti-tenascin-C antibody (Fischer, D. et al (1995) J Biol Chem 270: 3378-3384), respectively and by PAGE analysis of lysed surface-bound ECM material combined with Coomassie Brilliant Blue staining. Before plating, cells were serum starved for 18 h in DMEM containing 1×ITS (insulin, transferrin, selene) supplement, trypsinised, trypsin was blocked with 100 μg/ml soybean trypsin inhibitor in PBS and, cells were resuspended in serum-free medium and counted. 200-500 cells per well were plated for the indicated time points, fixed by addition of glutaraldehyde (2% final concentration) for 15 minutes and stained with 0.1% crystalviolet in 20% methanol for 30 minutes. Cells were observed under a Nikon microscope (Nikon diaphot) and pictures were taken with a Nikon camera.
(§2) Cells were plated on substrata (FN, FN/TN, FN/TN/III13, FN/TN+III13, III13, or BSA) for 1 h and 2 h, fixed and stained with crystal violet or vinculin and TRITC—labelled phalloidin. Adherent cells were photographed and spread cells were counted. Six-fold molar excess of FNIII13 (4 μg/cm^2) was either bound to a mixed fibronectin/tenascin-C substratum prior to addition of the cells (FN/TN/III13) or, was added in solution together with the cells (FN/TN+FNIII13). Proliferation of MDA-MB435 cells and DNA replication of T98G glioblastoma cells were determined as described in Examples 4 and 5. […] T98G cells plated for 2 h on fibronectin or on the mixed substratum were stained for vinculin. […] In addition, polymerisation of actin into stress fibres was blocked by tenascin-C. No polymerised actin was found.

T98G and REF52 cells = assay: Immunofluorescence of actin stress fibres and focal contacts; type: cell-based
Experimental: 10^4 cells were transferred onto 4-well Cellstar plastic plates (Greiner) that were coated with ECM proteins as described. Cells were fixed with 4% paraformaldehyde, 50 mM phosphate buffer, 5 mM EDTA in PBS for 15 minutes, blocked with 3% BSA, 0.5% Tween-20 in PBS and incubated with primary and secondary antibodies in blocking solution. Slides were embedded in 10.5% Mowiol containing 2.5% DABCO as antifade agent. Expression of syndecans was determined by immunofluorescence.
as §2

tenascin-C [2] = assay: In vitro binding assay (ELISA) to tenascin-C; design: species or system chicken; details: substratum-immobilised tenascin-C
Experimental: (§3) 96-well ELISA plates were coated with the indicated ECM proteins for 1 h at 37° C., blocked with 1% milkpowder, 0.05% Tween-20 in PBS. ECM proteins were added at the indicated concentrations in blocking solution for 1 h, washed with blocking solution and anti-fibronectin or anti-tenascin-C antibodies were added. Bound proteins were detected by immune reaction with a peroxidase-coupled secondary antibody specifically recognising anti-fibronectin and anti-tenascin-C antibodies, respectively, followed by colour reaction with 21 mg/ml citric acid 1-hydrate, 34 mg/ml Na2HPO4.2H2O, 0.4 mg/ml phenylenediamine, 1 μl H2O2 that was stopped with 4M sulphuric acid. The absorbance was read at […].
Bound fragments were detected with a polyclonal anti-fibronectin antibody, bound tenascin-C was detected with a monoclonal anti-tenascin-C antibody.

[3] = tested on: binding of tenascin-C to surface-immobilised intact fibronectin; assay: Competition of tenascin-C binding to surface-immobilised intact fibronectin
Experimental: as §3
No binding of the recombinant fragment FNIII7-10, including the RGD and synergy sites, to tenascin-C was detected in an ELISA assay.

tenascin-C [4] = assay: Co-immunoprecipitation with tenascin-C; type: binding, chicken
[5] = tested on: FAK (focal adhesion kinase) autophosphorylation at Y397; assay: FAK autophosphorylation by immunoblotting; type: cell-based, human; details: T98G parental and T98G:S4* cells
Experimental: An experiment was performed to check for the possibility that tenascin-C might compete with syndecan-4 for binding to the HepII site in fibronectin. The experiment tested whether activation of syndecan-4 through overexpression could rescue the tenascin-C-induced spreading defect on fibronectin. Parent T98G cells, pools (T98G:S4) or a selected clone (T98G:S4*) of glioblastoma cells stably overexpressing syndecan-4 (T98G:S4) were plated on the indicated substrata for 30 minutes, 2 h, 18 h or fixed, stained with crystal violet, photographed, and counted or stained with TRITC-labelled phalloidin and vinculin. Syndecan-4 was detected by immunofluorescence with an anti-syndecan-4 antibody. There was no staining with an unspecific anti-His monoclonal antibody (control), nor with the secondary antibody alone. FAK (focal adhesion kinase) autophosphorylation at Y397 and total FAK expression levels were assessed by immunoblotting with specific antibodies. DNA replication was determined as described in Example 4 and 5. As a result, pools of T98G cells (T98G:S4) that overexpressed syndecan-4 thereby activating syndecan-4 attached and spread on the mixed fibronectin/tenascin-C substratum. The majority of the 64.7% of T98G:S4 cells that attached also spread on the fibronectin/tenascin-C substratum. […]

T98G:S4* cells = assay: Cell surface binding of FNIII13 (pull down, western blotting, immunofluorescence); type: cell-based, human; details: compared to parental T98G
Experimental: as §1

[6] = fragment bound (immobilised) to the mixed substratum

heparin [reference compound] was tested, and the “effect on the FNIII13/syndecan-4 interaction” value (syndecan-4; 0.5 mg/ml heparin) was “blocked”.

For “SEQ ID NO:4: 20 amino acid fragment of FNIII13 having the sequence of SEQ ID NO:4, made by solid phase synthesis (RRARVTDATETTITISWRTK; listed as Homo sapiens)”, the “restoration of cell spreading on fibronectin/tenascin-C substratum” value [1, 6] was “restored cell spreading” and the “restoration of actin stress fibres and focal contacts on fibronectin/tenascin-C substratum” value (T98G and REF52 cells) was “largely restored”.

With “fibronectin: Fibronectin prepared from horse serum by gelatin agarose chromatography” the “binding to tenascin-C in ELISA” value (tenascin-C [2]) was “binds to substratum-immobilised tenascin-C in a dose-dependent manner”.

B1: FNIII13: recombinant 13th fibronectin type III repeat of the HepII site (SEQ ID NO:1) (protein, listed as Homo sapiens)
chain: NVSPPRRARVTDATETTITISWRTKTETITGFQVDAVPANGQTPIQRTIKPDVRSYTITGLQPGTDYKIYLYTLNDNARSSPVVIDAST
For B1, the “binding to tenascin-C in ELISA” value (tenascin-C [2]) was “bound to tenascin-C in a dose-dependent manner reaching saturation”, the “competition of tenascin-C binding to immobilised intact fibronectin” value [3] was “competed for by FNIII13 in a concentration-dependent fashion” and the “complex formation with tenascin-C in co-immunoprecipitation” value (tenascin-C [4]) was “form complexes”. The “attachment and spreading on the fragment alone as substratum” value ([1]; FNIII13 substratum without fibronectin) was “poorly attached and remained rounded”, the “restoration of cell spreading on fibronectin/tenascin-C substratum” value ([1]; fragment added in solution together with the cells) was “restored” and the “restoration of cell spreading on fibronectin/tenascin-C substratum” value [1, 6] was “could restore the cell spreading defect”. For the same molecule, the “restoration of actin stress fibres and focal contacts on fibronectin/tenascin-C substratum” value (T98G and REF52 cells) was “largely restored”, the “FAK autophosphorylation at Y397” value [5] was “largely restored FAK autophosphorylation” and the “FNIII13 bound to syndecan-4 in immunoprecipitation” value (syndecan-4; T98G:S4* cells, 100 μg/ml FNIII13, 1 h) was “detected”. The “binding to the cell surface of syndecan-4 overexpressing T98G cells” value (T98G:S4* cells) was “dose-dependent and heparin-competable manner; also recorded: several fold increased levels”.

From patent publication US8017725B2, “Use of heparin-binding domain of fibronectin for diagnosis and treatment of cancer” (Novartis Forschungesstiftung Zweigniederlassung Friedrich …, priority 2001, dated 2011)
